Source: the supplement of paper PMC7125110
± gives the standard error. For some assays here: Fewer inactive variants are shown than the library holds.

B1: glmS ribozyme (parent)
chain: AUAAAAGCGCCAGAACUACAGAAAUGUAGUUGACGAGGAGGAGGUUUAUCGAAUUUUCGGCGGAUGCCUCCAAA

How the values were obtained:
Details in all cases: with glucosamine-6-phosphate
glucosamine-6-phosphate [1] = variants of: B1; assay: kcat; higher = faster cleavage; RNA array
Outline: (§1)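 Weighted Michaelis–Menten fits across concentrations supplied kcat and KM, based on kobs from one- or two-exponential decay fits to normalised per-tile medians. The data came from barcoded ribozyme variants transcribed in situ by E. coli RNA polymerase on sequenced MiSeq chips and tracked at 37 °C by a hybridised Cy3 probe. Glucosamine-6-phosphate (40 μM to 10 mM) in HEPES/KCl/Mg(OAc)2 buffer was flowed in.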

glucosamine-6-phosphate [2] = variants of: B1; assay: KM; higher = weaker cofactor use; RNA array
Outline: as §1

glucosamine-6-phosphate [3] = variants of: B1; assay: self-cleavage kobs at 40 uM GlcN6P; higher = faster cleavage; RNA array
Outline: as §1

glucosamine-6-phosphate [4] = variants of: B1; assay: self-cleavage kobs at 10000 uM GlcN6P; higher = faster cleavage; RNA array
Outline: as §1

glucosamine-6-phosphate [5] = variants of: B1; assay: self-cleavage kobs at 2500 uM GlcN6P; higher = faster cleavage; RNA array
Outline: as §1

glucosamine-6-phosphate [6] = variants of: B1; assay: self-cleavage kobs at 640 uM GlcN6P; higher = faster cleavage; RNA array
Outline: as §1

glucosamine-6-phosphate [7] = variants of: B1; assay: self-cleavage kobs at 160 uM GlcN6P; higher = faster cleavage; RNA array
Outline: as §1

Variant | kcat (glucosamine-6-phosphate [1]) [s⁻¹] | KM (glucosamine-6-phosphate [2]) [µM] | self-cleavage kobs at 40 uM GlcN6P (glucosamine-6-phosphate [3]) [s⁻¹] | self-cleavage kobs at 10000 uM GlcN6P (glucosamine-6-phosphate [4]) [s⁻¹] | self-cleavage kobs at 2500 uM GlcN6P (glucosamine-6-phosphate [5]) [s⁻¹] | self-cleavage kobs at 640 uM GlcN6P (glucosamine-6-phosphate [6]) [s⁻¹] | self-cleavage kobs at 160 uM GlcN6P (glucosamine-6-phosphate [7]) [s⁻¹]
A6G C67A | 0.00012 ± 9e-06 | 3130 ± 670 | < 1e-05 | 9.19e-05 ± 1.6e-05 |  |  | 
A6U G29A | 3.18e-05 ± 3.2e-06 |  | < 1e-05 | 2.9e-05 ± 9.8e-06 | 2.95e-05 ± 1.3e-05 |  | 
C10U A12G | 2.19e-05 ± 1.8e-06 | 2150 ± 870 |  |  |  |  | 
A6U C71U | 0.000302 ± 1.3e-05 | 2710 ± 230 |  | 0.000235 ± 2.4e-05 | 0.000149 ± 1.7e-05 | 5.53e-05 ± 9.2e-06 | 
C10U A39U | 1.59e-05 ± 5e-07 | 6310 ± 460 | < 1e-05 |  |  | < 1e-05 | < 1e-05
A6G A39G | 0.00207 ± 0.0008 |  |  | 0.00121 ± 0.00015 | 0.000791 ± 0.0001 | 0.000144 ± 2.7e-05 | 6.4e-05 ± 1.4e-05
A6G G32U | < 1e-05 |  | < 1e-05 |  |  |  | 
A6U G59A | < 1e-05 |  | < 1e-05 |  |  | < 1e-05 | 
C11A A64G | 0.000168 ± 1.1e-05 | 1190 ± 250 |  | 0.000147 ± 1.6e-05 | 0.000135 ± 2.7e-05 | 5.53e-05 ± 1.3e-05 | 
A6U U54G | 0.000293 ± 3e-05 | 3960 ± 740 |  | 0.000204 ± 2.5e-05 | 0.000122 ± 1.5e-05 | 3.62e-05 ± 8.4e-06 | 
G9U A48U C58G C67U | < 1e-05 |  | < 1e-05 |  |  | < 1e-05 | 
C8G G60A | < 1e-05 |  | < 1e-05 | < 1e-05 |  |  | 
C10U A14U | < 1e-05 |  | < 1e-05 |  |  |  | 
C10U A14G | 0.000181 ± 2.4e-05 | 2130 ± 650 |  | 0.000159 ± 1.6e-05 | 8.95e-05 ± 8.6e-06 | 5.02e-05 ± 7.8e-06 | 
A6G U31G | 0.000452 ± 9.7e-05 | 4990 ± 1600 |  | 0.000281 ± 5.8e-05 | 0.000183 ± 3.2e-05 | 4.67e-05 ± 9.4e-06 | 
A6U G59A C68U | 1.04e-05 ± 3.6e-06 |  |  |  |  |  | 
C10U U30C G59A G60A C70U | < 1e-05 |  | < 1e-05 |  |  |  | 
C11A A52G C58G | 1.09e-05 ± 2.8e-06 |  |  |  |  |  | < 1e-05
C10U G63A | < 1e-05 |  |  |  | < 1e-05 | < 1e-05 | 
A6U A39U | 0.000104 ± 2.7e-06 | 2160 ± 150 |  | 8.67e-05 ± 1.1e-05 | 5.5e-05 ± 7.8e-06 | 2.53e-05 ± 8.4e-06 | 
A6U A39G | 0.000267 ± 2.8e-05 | 5030 ± 1100 |  | 0.000175 ± 2.6e-05 | 9.44e-05 ± 1.8e-05 |  | 

Variant | kcat (glucosamine-6-phosphate [1]) [s⁻¹] | KM (glucosamine-6-phosphate [2]) [µM] | self-cleavage kobs at 40 uM GlcN6P (glucosamine-6-phosphate [3]) [s⁻¹] | self-cleavage kobs at 10000 uM GlcN6P (glucosamine-6-phosphate [4]) [s⁻¹] | self-cleavage kobs at 2500 uM GlcN6P (glucosamine-6-phosphate [5]) [s⁻¹] | self-cleavage kobs at 640 uM GlcN6P (glucosamine-6-phosphate [6]) [s⁻¹] | self-cleavage kobs at 160 uM GlcN6P (glucosamine-6-phosphate [7]) [s⁻¹]
C11A C67U | 4.14e-05 ± 2.5e-06 |  |  | 4.17e-05 ± 6.9e-06 | 3.53e-05 ± 1e-05 | 3.1e-05 ± 1.4e-05 | 
G9C G37C | 1.88e-05 ± 8.6e-06 |  |  | < 1e-05 |  |  | 
C11A G41A | < 1e-05 | 2450 ± 650 |  |  |  | < 1e-05 | < 1e-05
A6U C70G | 3.01e-05 ± 9.6e-06 |  |  | 1.91e-05 ± 6.9e-06 | 5.38e-05 ± 1.1e-05 | 3.81e-05 ± 1.3e-05 | 
C10A U54G | < 1e-05 |  | < 1e-05 |  |  |  | 
C10U U56A | 2.68e-05 ± 5.7e-06 |  | < 1e-05 |  | 3.47e-05 ± 1.4e-05 |  | 
C10A U69C | 1.7e-05 ± 1.9e-06 |  |  |  |  |  | 
C11A A12U U45G U55A C70U | 0.00104 ± 0.00013 |  |  | 0.000245 ± 5.6e-05 | 7.5e-05 ± 3.1e-05 |  | 
C10A G51U G63C | 1.02e-05 ± 4.6e-07 | 731 ± 360 |  |  | < 1e-05 |  | 
A6C A39G | 6.38e-05 ± 7.8e-07 | 439 ± 33 |  | 6.11e-05 ± 1.4e-05 | 5.42e-05 ± 1.9e-05 |  | 
C10U A52U C68G | 0.000101 ± 4.6e-05 |  |  |  | 6.27e-05 ± 2.5e-05 |  | 
A6G U45A | 0.000591 ± 0.00015 |  |  | 0.000455 ± 8.7e-05 | 0.000454 ± 0.00011 |  | 
A5U | 0.0156 ± 0.0027 | 661 ± 170 | 0.000961 ± 0.00015 | 0.0129 ± 0.003 | 0.0143 ± 0.0042 | 0.00869 ± 0.0012 | 0.00247 ± 0.00049
C11A A15G | 0.000255 ± 2.9e-05 | 1280 ± 310 |  | 0.000251 ± 3.3e-05 | 0.000149 ± 1.9e-05 | 8.86e-05 ± 1e-05 | 3.04e-05 ± 1.5e-05
C10U U55C | 3.56e-05 ± 9.4e-06 |  | < 1e-05 | 1.93e-05 ± 9e-06 |  |  | 
C10U U55A | 1.86e-05 ± 2.2e-06 |  |  | 1.77e-05 ± 7.8e-06 |  |  | 
A6U C50U | < 1e-05 |  |  |  | < 1e-05 |  | 
C8A G60A | < 1e-05 | 86.3 ± 25 |  |  |  |  | < 1e-05
C10G G62C | < 1e-05 |  |  |  |  |  | 
A6C G13A A36U U56G | < 1e-05 |  | < 1e-05 |  | < 1e-05 |  | 
